Measurements published in US20210395381A1 (OSSIANIX, published 2021).
Substitutions are numbered along the chain they refer to.

B1: Clone 8.1 (VNAR)
VNAR: ARVDQTPQTITKETGESLTINCVLRDSNCALPSTYWYRKKSGSTNEESISKGGRYVETVNSGSKSFSLRINDLTVEDSGTYRCKVLRLLSSILRGCNYRKHDVYGDGTAVTVNA
notes: VNAR on phage; Clone 8 framework
B2: Clone 8.20 (VNAR)
VNAR: B1 VNAR with L86I, R87A, L88Q, N97L, Y98D, R99K
notes: as for B1
B3: Clone 8.5 (VNAR)
VNAR: B1 VNAR with L86I, R87A, L88Q, S90G, S91W, I92W
notes: as for B1
B4: Clone 8.14 (VNAR)
VNAR: B1 VNAR with L86I, R87A, L88Q, R94G, G95Y, N97Y
notes: as for B1
B5: Clone 8.32 (VNAR)
VNAR: B1 VNAR with L86I, R87A, L88Q, L93W, R94K, N97K
notes: as for B1
B6: Clone 8.10 (VNAR)
VNAR: B1 VNAR with L86I, R87A, L88Q, S90A, S91I, I92E
notes: as for B1
B7: Clone 8.34 (VNAR)
VNAR: B1 VNAR with L86I, R87A, L88Q, R99I, K100A, H101Y
notes: as for B1
B8: Clone 8.7 (VNAR)
VNAR: B1 VNAR with L86I, R87A, L88Q, R94K, G95A, N97K
notes: as for B1
B9: Clone 8.17 (VNAR)
VNAR: B1 VNAR with L86I, R87A, L88Y, L89R, S90K, L93V
notes: as for B1
B10: Clone 8.18 (VNAR)
VNAR: B1 VNAR with L86I, R87A, L88Q, I92K, L93Y, R94V
notes: as for B1
B11: Clone 8.23 (VNAR)
VNAR: B1 VNAR with L86I, R87A, L88Q, S90P, S91K, I92Q
notes: as for B1
B12: Clone 8.24 (VNAR)
VNAR: B1 VNAR with L86I, R87A, L88Q, R99F, K100F, H101P
notes: as for B1
B13: Clone 8.9 (VNAR)
VNAR: B1 VNAR with L86W, R87N, L88M
notes: as for B1
B14: Clone 8.6 (VNAR)
VNAR: B1 VNAR with L86I, R87A, L88Q, L89W, S90W
notes: as for B1
B15: Clone 8.31 (VNAR)
VNAR: B1 VNAR with L86I, R87A, L88Q, S90I, Y98K, R99N
notes: as for B1
B16: Clone 8.33 (VNAR)
VNAR: B1 VNAR with L86R, R87D, L88A
notes: as for B1
B17: Clone 8.8 (VNAR)
VNAR: B1 VNAR with L86F, R87A, L88P
notes: as for B1
B18: Clone 8.25 (VNAR)
VNAR: B1 VNAR with L86I, R87A, L88Q, I92M, L93E, R94L
notes: as for B1
B19: Clone 8.12 (VNAR)
VNAR: B1 VNAR with L86R, R87W, L88R
notes: as for B1
B20: Clone 8.27 (VNAR)
VNAR: B1 VNAR with L86Q, R87G, L88M
notes: as for B1
B21: Clone 8.11 (VNAR)
VNAR: B1 VNAR with L86I, R87A, L88Q, L93Y, R94P
notes: as for B1
B22: Clone 8.37 (VNAR)
VNAR: B1 VNAR with L86I, R87A, L88Q, I92Q, L93R, R94W
notes: as for B1
B23: Clone 8.36 (VNAR)
VNAR: B1 VNAR with L86I, R87A, L88Q, R99W, K100R, H101W
notes: as for B1
B24: Clone 8.28 (VNAR)
VNAR: B1 VNAR with L86A, R87F, L88I
notes: as for B1
B25: Clone 8.13 (VNAR)
VNAR: B1 VNAR with L86I, R87A, L88Q, S90A, S91L, I92A
notes: as for B1
B26: Clone 8.35 (VNAR)
VNAR: B1 VNAR with L86I, R87A, L88E, S90F
notes: as for B1
B27: Clone 8.2 (VNAR)
VNAR: B1 VNAR with R87F, L88N
notes: as for B1
B28: Clone 8.16 (VNAR)
VNAR: B1 VNAR with L86I, R87A, L88K, S90F, R94C
notes: as for B1
B29: Clone 8.21 (VNAR)
VNAR: B1 VNAR with L86I, R87A, L88H, I92F, L93R, R94D
notes: as for B1
B30: Clone 8.22 (VNAR)
VNAR: B1 VNAR with L86I, R87A, L88Q, L89Q, S90K, R99H
notes: as for B1
B31: Clone 8.30 (VNAR)
VNAR: B1 VNAR with L86S, R87M
notes: as for B1
B32: Clone 8.97 (VNAR)
VNAR: B1 VNAR with L86I, R87A, L88Q, R99N, K100I, H101D
notes: as for B1
B33: Clone 8.19 (VNAR)
VNAR: B1 VNAR with L86Q, R87S, L88Q, S91I, I92V
notes: as for B1
B34: Clone 8.29 (VNAR)
VNAR: B1 VNAR with L86I, R87A, L88Q, R94L, G95T, N97E
notes: as for B1
B35: Clone 8.4 (VNAR)
VNAR: B1 VNAR with L86K, R87L, L88W
notes: as for B1
B36: Clone 8.137 (VNAR)
VNAR: B1 VNAR with L86I, R87A, L88Q, R99F, K100G, H101K
notes: as for B1
B37: Clone 8.3 (VNAR)
VNAR: B1 VNAR with L86V, L88F
notes: as for B1
B38: Clone 8.26 (VNAR)
VNAR: B1 VNAR with L86I, R87A, L88S, L89A, S90F
notes: as for B1
B39: Clone 8.15 (VNAR)
VNAR: B1 VNAR with L86M, R87W, L88N
notes: as for B1

How the values were obtained:
recombinant human TfR-1 = target: T1, recombinant human TfR-1 (human, UniProt P02786 89-760); experiment: phage ELISA
T1 construct: Recombinant protein coated at 1 ug/ml in the phage ELISA; also called hTfR1; human transferrin receptor-1
T1 sequence (P02786 89-760 limits assumed): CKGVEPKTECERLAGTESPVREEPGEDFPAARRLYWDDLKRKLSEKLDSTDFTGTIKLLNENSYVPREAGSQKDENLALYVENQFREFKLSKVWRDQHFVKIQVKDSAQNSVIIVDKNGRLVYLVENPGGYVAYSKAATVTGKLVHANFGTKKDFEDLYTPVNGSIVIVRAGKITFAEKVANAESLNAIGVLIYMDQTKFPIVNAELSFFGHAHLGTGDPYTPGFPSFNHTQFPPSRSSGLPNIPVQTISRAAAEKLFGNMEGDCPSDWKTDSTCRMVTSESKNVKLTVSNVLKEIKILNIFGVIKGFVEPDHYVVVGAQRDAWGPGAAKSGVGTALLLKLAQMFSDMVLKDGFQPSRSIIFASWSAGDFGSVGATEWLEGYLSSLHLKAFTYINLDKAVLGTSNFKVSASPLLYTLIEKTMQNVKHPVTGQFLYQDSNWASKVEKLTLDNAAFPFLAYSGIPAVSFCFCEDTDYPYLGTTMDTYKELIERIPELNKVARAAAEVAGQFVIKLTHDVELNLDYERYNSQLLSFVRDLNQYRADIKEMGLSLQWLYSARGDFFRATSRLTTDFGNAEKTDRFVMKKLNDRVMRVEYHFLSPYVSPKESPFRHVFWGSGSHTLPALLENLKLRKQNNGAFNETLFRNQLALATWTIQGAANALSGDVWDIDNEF

recombinant mouse TfR-1 = target: T2, recombinant mouse TfR-1 (mouse, UniProt Q62351 89-763); experiment: phage ELISA
T2 construct: Recombinant protein coated at 1 ug/ml in the phage ELISA; also called mTfR1; mouse transferrin receptor-1
T2 sequence (Q62351 89-763 limits assumed): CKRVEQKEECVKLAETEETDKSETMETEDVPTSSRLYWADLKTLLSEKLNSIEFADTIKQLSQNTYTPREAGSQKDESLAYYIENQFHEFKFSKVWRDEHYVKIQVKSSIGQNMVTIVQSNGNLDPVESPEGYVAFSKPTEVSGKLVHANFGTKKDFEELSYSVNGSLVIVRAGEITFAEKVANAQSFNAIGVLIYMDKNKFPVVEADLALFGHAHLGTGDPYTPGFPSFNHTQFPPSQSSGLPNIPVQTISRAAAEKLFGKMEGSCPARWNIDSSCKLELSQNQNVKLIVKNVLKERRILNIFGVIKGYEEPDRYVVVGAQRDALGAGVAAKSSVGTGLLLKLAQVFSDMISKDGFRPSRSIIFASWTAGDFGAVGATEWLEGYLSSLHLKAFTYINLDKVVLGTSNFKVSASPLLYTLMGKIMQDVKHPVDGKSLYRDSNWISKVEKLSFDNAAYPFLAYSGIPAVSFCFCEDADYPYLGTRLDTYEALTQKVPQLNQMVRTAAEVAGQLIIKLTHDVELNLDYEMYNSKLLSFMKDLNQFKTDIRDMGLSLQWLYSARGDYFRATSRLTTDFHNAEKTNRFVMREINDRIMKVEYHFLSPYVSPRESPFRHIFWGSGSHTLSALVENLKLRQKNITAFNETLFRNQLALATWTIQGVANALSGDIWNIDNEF

| Binder | A450 (recombinant human TfR-1) [A450] | A450 (recombinant mouse TfR-1) [A450] |
| --- | --- | --- |
| B1 | 0.371 | 0.312 |
| B2 | 0.084 | 0.087 |
| B3 | 0.152 | 0.172 |
| B4 | 0.067 | 0.095 |
| B5 | 0.065 | 0.074 |
| B6 | 0.072 | 0.101 |
| B7 | 0.078 | 0.072 |
| B8 | 0.087 | 0.123 |
| B9 | 0.091 |  |
| B10 | 0.06 | 0.09 |
| B11 | 0.055 | 0.085 |
| B12 | 0.093 | 0.084 |
| B13 | 0.119 | 0.108 |
| B14 | 0.199 | 0.164 |
| B15 | 0.077 | 0.075 |
| B16 | 0.09 | 0.073 |
| B17 | 0.103 | 0.118 |
| B18 | 0.06 | 0.084 |
| B19 | 0.108 | 0.1 |
| B20 | 0.079 | 0.08 |

| Binder | A450 (recombinant human TfR-1) [A450] | A450 (recombinant mouse TfR-1) [A450] |
| --- | --- | --- |
| B21 | 0.066 | 0.101 |
| B22 | 0.069 | 0.071 |
| B23 | 0.058 | 0.071 |
| B24 | 0.085 | 0.077 |
| B25 | 0.075 | 0.096 |
| B26 | 0.078 | 0.071 |
| B27 | 0.315 | 0.242 |
| B28 | 0.138 | 0.092 |
| B29 | 0.058 | 0.086 |
| B30 | 0.066 | 0.086 |
| B31 | 0.114 | 0.077 |
| B32 | 0.057 |  |
| B33 | 0.078 | 0.088 |
| B34 | 0.059 | 0.077 |
| B35 | 0.173 | 0.188 |
| B36 | 0.076 |  |
| B37 | 0.27 | 0.194 |
| B38 | 0.087 | 0.082 |
| B39 | 0.095 | 0.095 |
